Source: paper PMC6794829

Assays:
[1] = test system: T1, HcdR2 (LuxR family regulator) (Streptomyces mobaraensis US-43), ORF:dfa86b54; assay: EMSA; conditions: EMSA: 10 mM Tris-HCl, 50 mM KCl, 1 mM DTT, pH 7.5 (1x of 10x buffer), 20 fmol probe in 20 uL, 25-2000 nM protein, room temperature 20 min; native 5% gel, 0.5x …
T1 sequence: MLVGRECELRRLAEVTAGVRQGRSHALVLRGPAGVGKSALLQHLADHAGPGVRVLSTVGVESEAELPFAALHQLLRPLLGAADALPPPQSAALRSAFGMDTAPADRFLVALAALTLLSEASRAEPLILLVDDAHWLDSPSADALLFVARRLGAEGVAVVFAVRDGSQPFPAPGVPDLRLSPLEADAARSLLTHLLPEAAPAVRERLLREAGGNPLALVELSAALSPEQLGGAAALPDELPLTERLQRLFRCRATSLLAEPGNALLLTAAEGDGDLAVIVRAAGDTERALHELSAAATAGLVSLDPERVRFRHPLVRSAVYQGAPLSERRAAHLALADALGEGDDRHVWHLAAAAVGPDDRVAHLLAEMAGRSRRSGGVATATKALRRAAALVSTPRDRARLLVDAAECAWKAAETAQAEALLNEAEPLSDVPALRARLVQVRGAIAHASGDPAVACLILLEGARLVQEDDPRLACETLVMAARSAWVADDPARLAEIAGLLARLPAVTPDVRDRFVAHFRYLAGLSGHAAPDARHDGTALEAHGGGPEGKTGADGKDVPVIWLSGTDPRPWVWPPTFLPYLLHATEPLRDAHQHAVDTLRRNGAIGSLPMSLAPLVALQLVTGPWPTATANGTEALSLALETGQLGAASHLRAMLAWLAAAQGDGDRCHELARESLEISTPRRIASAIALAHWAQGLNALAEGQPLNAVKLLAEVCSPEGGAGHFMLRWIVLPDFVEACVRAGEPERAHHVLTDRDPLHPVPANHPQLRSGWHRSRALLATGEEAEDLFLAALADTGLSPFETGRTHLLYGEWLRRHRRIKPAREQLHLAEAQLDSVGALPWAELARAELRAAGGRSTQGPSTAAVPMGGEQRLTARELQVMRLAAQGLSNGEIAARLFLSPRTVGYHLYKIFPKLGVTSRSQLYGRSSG

[2] = test system: T1, HcdR2 (LuxR family regulator) (Streptomyces mobaraensis US-43), ORF:dfa86b54; assay: competition; conditions: EMSA: 10 mM Tris-HCl, 50 mM KCl, 1 mM DTT, pH 7.5 (1x of 10x buffer), 20 fmol probe in 20 uL, 25-2000 nM protein, room temperature 20 min; native 5% gel, 0.5x …

Q: With “GATTCAGCCAAGTGACCCCGCAAGAAGCCTCGTTCGCGAACGGTCCCTGAGCCCGCGCCCGCGCCGCACCCGCGGACCATCCGCCGAACGGCCGGGCCGCCCGTACGGTCTGGAGAGCGCCACGGCGTGCGGGTCCCGGTGGTGGGCCACGGCGCGGCCGACCCGTCAGGTGTTTCCGGGAGGCCGCGCCGCGGAGGGCACGCACGTCCGTGGCGGGACCGGGGGACGGGAGACGGCGTGGCGCCGCGTCATGGTCGTCCGGCGCCTCGATGCCGTCACGGCGCAGGGCGGGCCCGCCGG (double strand) [hcdT-1p]” as the sequence, how does the binding [1] read?
A: Its binding is “no binding”.

Q: Which binding [2] does the source give for “CTCTTCGCGGGGAGAGAGCGGCCGGTCGCGGCACGGCGAGCCTATGAAGATCGACACGGCCGCCCCACCCCCTACGACCCCTACGAACCCCTGTCCCCTACCGGCGCGGCAGGGGACAGGGGTTCGTAGGGGTCGTAGGGGGTGGGGGGCCGCCGGACGATCTTCATAGGCTCGCTCTCGATCGGAGACGGCCCTCGCAGCCGTGTCCCCGGCAACCCGGACTTCTCGCGGACCGGCCGCCCCCAGGCCGACCCCCCTACTCGATCCACGACGAGAAAGAGGTT (double strand) [V2 Bp]” here?
A: Its binding is “binds”.

Q: How did the binding [2] turn out when “CGCGCCCAGCGGCCAGGTGGGCCGTTGCGCCAGGCGGGCGGCCGCCACCCCCGCAGTGCCAGGGGCAGTCCGCCGCACAGCTCGGCCAGCCGTCGCGCAGC (double strand) [hcdR1p]” was run?
A: Its binding is “no binding”.
